In patent US20210155689A1 (SHANGHAI PHARMAEXPLORER, published 2021):
Primed or numbered codes have the meaning given here. No end group written: not given here. Biotin′ = biotin label at the C-terminus

Legend:
[1] = target: LAG-3-hFc protein (human LAG-3 extracellular region with hFc tag) (human) (UniProt P18627); assay: FACS, inhibition of LAG-3-hFc binding to MHC II on Raji cells, antibody 0.274 nM
[2] = target: LAG-3-hFc protein (human LAG-3 extracellular region with hFc tag) (human) (UniProt P18627); assay: ELISA, inhibition of LSECtin-His binding to coated LAG-3-hFc, antibody 40.000 nM, replicate 2
[3] = target: human LAG-3 on cells (HEK293-hLAG-3 stable cell line) (human) (UniProt P18627); assay: FACS, HEK293-hLAG-3, antibody 40 nM
[4] = target: human LAG-3 on cells (HEK293-hLAG-3 stable cell line) (human) (UniProt P18627); assay: FACS, HEK293-hLAG-3, antibody 0.013 nM
[5] = target: T1, human LAG-3 ECD (antigen protein of the affinity test) (human, UniProt P18627 23-450); assay: SPR, CM5 chip, antibody captured by anti-human Fc IgG, antigen in flow, 1:1 fit
T1 sequence: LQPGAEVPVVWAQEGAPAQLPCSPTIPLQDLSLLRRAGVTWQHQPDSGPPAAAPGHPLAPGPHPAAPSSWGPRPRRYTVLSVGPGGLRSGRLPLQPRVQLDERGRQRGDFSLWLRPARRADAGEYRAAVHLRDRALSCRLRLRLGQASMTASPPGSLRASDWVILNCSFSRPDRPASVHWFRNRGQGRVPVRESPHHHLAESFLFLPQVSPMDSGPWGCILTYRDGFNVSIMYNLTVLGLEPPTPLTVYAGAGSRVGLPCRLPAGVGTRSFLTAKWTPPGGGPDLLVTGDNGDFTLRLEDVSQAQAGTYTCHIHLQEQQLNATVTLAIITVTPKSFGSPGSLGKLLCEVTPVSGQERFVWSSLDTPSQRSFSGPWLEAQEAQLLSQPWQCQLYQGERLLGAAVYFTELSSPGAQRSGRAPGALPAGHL
Description: First, anti-human Fc IgG was immobilized on the surface of the CM5 chip to 6000-10000 RU by amino coupling method, with FC1 as the reference channel. The coupling process was as follows: a freshly prepared 1:1 mixture of 50 mM NHS and 200 mM EDC was activated for 7 minutes, then injected with 10-50 ug/ml anti-human Fc IgG diluted in 10 mM sodium acetate ph5.0 buffer. The remaining activated sites were blocked with 1M ethanolamine. Then, HBS-EP+ buffer was used to dilute the antibody to be tested to 5 ug/ml (adjustable according to the capture level) and the antibodies were captured on the chip at a flow rate of 10 ul/min to obtain a response value of about 100˜300 RU. Then the antigen protein was diluted to 100 nM (the highest concentration was tentatively 100 nM), and flew through the chip surface at a flow rate of 30 ul/min. If enough signal value was obtained, the antigen-protein was diluted by several concentration gradients, and flew through the chip surface respectively. At the end of each cycle, the chip surface was regenerated with 10 mM Glycine at pH 1.5. The kinetic rate constant needed to be subtracted from the blank control, and the data was fitted with the global fit analysis method 1:1 combination model. The dissociation equilibrium rate constant (KD) was calculated according to the following formula: KD=kd/ka.

[6] = target: T2, human LAG-3 on cells (HEK293-hLAG-3 stable cell line) (human, UniProt P18627 23-525); assay: FACS, HEK293-hLAG-3, antibody 1.6 nM
T2 sequence: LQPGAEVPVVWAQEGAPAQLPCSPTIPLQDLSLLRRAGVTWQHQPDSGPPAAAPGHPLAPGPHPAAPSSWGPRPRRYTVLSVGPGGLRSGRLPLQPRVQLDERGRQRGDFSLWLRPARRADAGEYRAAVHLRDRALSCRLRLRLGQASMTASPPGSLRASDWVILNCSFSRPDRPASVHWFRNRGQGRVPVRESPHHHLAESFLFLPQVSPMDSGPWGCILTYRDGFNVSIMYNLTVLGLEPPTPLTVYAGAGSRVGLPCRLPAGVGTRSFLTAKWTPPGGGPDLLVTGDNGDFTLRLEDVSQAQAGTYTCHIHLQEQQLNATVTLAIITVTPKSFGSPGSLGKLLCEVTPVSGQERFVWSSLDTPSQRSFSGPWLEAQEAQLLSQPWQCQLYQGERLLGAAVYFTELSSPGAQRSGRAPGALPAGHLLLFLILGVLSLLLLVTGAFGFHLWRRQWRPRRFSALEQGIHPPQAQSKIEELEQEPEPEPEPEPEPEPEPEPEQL

[7] = target: T2, human LAG-3 on cells (HEK293-hLAG-3 …); assay: FACS, HEK293-hLAG-3, antibody 0.32 nM
Text: A. The binding of antibodies to LAG-3 expressing cells was detected by Flow cytometry (FACS), wherein the method was according to that of Example 5.

HPAAPSSWGPRPK-Biotin = target: T3, HPAAPSSWGPRPK-Biotin (human); assay: peptide scanning ELISA, biotin peptide on streptavidin
T3 construct: Overlapping peptide of the outer loop of human LAG-3; also called LAG-3 Extra cyclic peptide
T3 peptide: HPAAPSSWGPRPK-{Biotin′}
Description: (§1) Fifteen overlapping peptides including the full length of the outer loop sequence were prepared and biotin was coupled to each C-terminus. Enzyme-linked immunosorbent assay (ELISA) was used to detect the binding of antibodies to these peptides. Streptavidin (sigma, Cat #M5432) was diluted with PBS to a final concentration of 1.0 μg/ml, and then added as 100 μl per well to a 96-well ELISA plate. The plate was sealed with plastic film and incubated overnight at 4° C. The plate was washed 2 times with the plate washing solution (PBS+0.01% Tween20) on the next day, and added with the blocking solution (PBS+0.01% Tween20+1% BSA) and blocked at room temperature for 1-2 hours. The blocking solution was poured off, and biotinylated peptides was added to a final concentration of 1 ug/ml, as 100 ul per well to the 96-well ELISA plate, incubated at 37° C. for 1-2 hours, then washed with plate washing solution (PBS+0.01% Tween20)2-3 times. Then the antibody samples to be tested were incubated as 100 μl per well at 37° C. for 1-2 hours, and then the plate was washed 2-3 times with a plate washing solution (PBS+0.01% Tween20). HRP (horseradish peroxidase) labeled secondary antibody was added, and the plate was incubated at 37° C. for 1-2 hours, and washed 2-3 times with a plate washing solution (PBS+0.01% Tween20). 100 μl of TMB substrate was added to each well. After incubated at room temperature for 15-30 minutes, the plate was added with 100 μl of stop solution (1.0N HCl) to each well.

PHPAAPSSWGPRK-Biotin = target: T4, PHPAAPSSWGPRK-Biotin (human); assay: as above
T4 construct: Overlapping peptide of the outer loop of human LAG-3; also called LAG-3 Extra cyclic peptide
T4 peptide: PHPAAPSSWGPRK-{Biotin′}
Description: as §1

Molecule: hIgG control (antibody)
- Inhibition rate (%) [1]: 8.1%
- Inhibition rate (%) [2]: -3.5%
- Mean fluorescence intensity [3]: 4
- Mean fluorescence intensity [4]: 4

B1: 556F6B8 mouse-human chimeric antibody (antibody, V domains shown)
VH: RVQLKQSGPGLVQPSQSLSITCTVSGFSLIKYGVHWVRQSPGEGLEWLGVIWRGGITDYNAAFMSRLSITKDNSKSQVFFKMNSLQADDTAIYYCAKWDGPLAMDYWGQGTSVTVSS
VL: DIVMTQSHKFLSTSVGDRVSITCKASQDVGTTVAWYQQKPGQSPKLLIYWASTRHTGVPDRFTGSGSGTDFTLTISNVQSEDLADYFCQQYSSYPYTFGGGTKLEIK
notes: also called mAb123-556F6B8; 556F8B8
- Kd [5]: 3.39 nM
- koff [5]: 0.000455 s⁻¹
- kon [5]: 134000 M⁻¹ s⁻¹

B2: 405B8H3 mouse-human chimeric antibody (antibody, V domains shown)
VH: QVQLQQSGAELVRPGASVTLSCKASGYTFTDYEMHWVKQTPVHGLEWIGATDPETGNSAYNQKFKGKAIMTADKSSSTAYMELRSLTSEDSAVYYCISTGWNDWGQGTSLTVSS
VL: DIKMTQSPSSMYASLGERVTITCKASQDINSYLSWFQQKPGKSPKTLIYRADRLLDGVPSRFSGSGSGQDYSLTISSLEYGDMGIYYCLQYDEFPYTFGGGTKLEIK
notes: also called mAb103-405B8H3
- Mean fluorescence intensity [6]: 139
- Kd [5]: 2.58 nM
- koff [5]: 0.000165 s⁻¹
- kon [5]: 64000 M⁻¹ s⁻¹
- Mean fluorescence intensity [7]: 54

B3: 105F1E10 (mouse antibody purified from hybridoma) (antibody, V domains shown)
VH: EVQLQQSGPELVKPGASVKMSCRASGYTFTDFKMHWMKQSHGKSLEWIGYIAPNNGGTAYNQKFRGKATLTVNESSNTAYMELRSLTSEDSAVYYCVDWDDVDYWGQGTTLTVSS
VL: DIKMTQSPSSMYASLGERVTITCKASQDINSYLSWFQQKSGKSPKTLIYRANRLVDGVPSRFSGSGSGQDYSLTISSLEYEDMGIYYCLQYVEFPLTFGAGTKLELK
notes: also called mAb009-105F1E10
- binding result (HPAAPSSWGPRPK-Biotin): binds
- binding result (PHPAAPSSWGPRK-Biotin): binds
